GTPase rate of RabL2 with IFT81 (460-533)/74 (460-532) against RabL2 alone and Kd data for three substances are collected here from doi:10.1101/2022.05.31.494111.

Read-outs that look alike come from different tables or passages of the source.

In assay [1] the target is minimal CrIFT81_(460-533)/CrIFT74_(460-532) complex (Chlamydomonas reinhardtii) (UniProt Q68RJ5).
Assay [2] deals with Chlamydomonas reinhardtii RabL2, wild type (Chlamydomonas reinhardtii). The assay can be described thus: ITC. (In ITC the heat of successive injections is recorded.)
For assay [3] the target is unchanged. Put plainly: ITC. The source holds these as a separate data set.
The target in assay [4] is CrIFT81_(152-C)/74_(150-C)/27/25_(1-136) complex (Chlamydomonas reinhardtii) (UniProt Q68RJ5). The assay can be described thus: ITC.

Usually Kd stands for the free concentration of one partner at which half of the binding sites on the other are occupied at equilibrium, for simple one-to-one binding. Low readings indicate higher affinity, high ones lower affinity.

Sequence of minimal CrIFT81_(460-533)/CrIFT74_(460-532) complex (Chlamydomonas reinhardtii) (Q68RJ5 460-533, chain 1 of 2): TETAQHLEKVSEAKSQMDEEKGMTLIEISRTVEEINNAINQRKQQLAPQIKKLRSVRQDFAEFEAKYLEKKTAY
Sequence of minimal CrIFT81_(460-533)/CrIFT74_(460-532) complex (Chlamydomonas reinhardtii) (Q6RCE1 460-532, chain 2 of 2, further chain): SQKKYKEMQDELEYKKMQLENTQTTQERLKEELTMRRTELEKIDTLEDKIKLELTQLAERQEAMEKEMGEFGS
Sequence of CrIFT81_(152-C)/74_(150-C)/27/25_(1-136) complex (Chlamydomonas reinhardtii) (Q68RJ5 152-683, chain 1 of 4): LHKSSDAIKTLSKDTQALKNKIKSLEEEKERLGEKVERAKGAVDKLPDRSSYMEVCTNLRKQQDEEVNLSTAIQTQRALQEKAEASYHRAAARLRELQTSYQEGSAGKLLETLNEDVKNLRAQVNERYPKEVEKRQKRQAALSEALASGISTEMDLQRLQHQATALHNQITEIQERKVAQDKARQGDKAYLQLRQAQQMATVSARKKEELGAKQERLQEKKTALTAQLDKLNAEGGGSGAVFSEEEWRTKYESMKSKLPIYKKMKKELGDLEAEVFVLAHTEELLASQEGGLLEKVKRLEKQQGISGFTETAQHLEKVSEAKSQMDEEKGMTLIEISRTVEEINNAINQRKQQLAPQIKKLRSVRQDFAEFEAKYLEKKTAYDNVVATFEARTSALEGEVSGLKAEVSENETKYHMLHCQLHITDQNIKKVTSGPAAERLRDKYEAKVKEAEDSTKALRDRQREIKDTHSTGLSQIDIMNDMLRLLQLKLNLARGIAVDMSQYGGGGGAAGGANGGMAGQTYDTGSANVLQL
Sequence of CrIFT81_(152-C)/74_(150-C)/27/25_(1-136) complex (Chlamydomonas reinhardtii) (Q6RCE1 150-641, chain 2 of 4, further chain): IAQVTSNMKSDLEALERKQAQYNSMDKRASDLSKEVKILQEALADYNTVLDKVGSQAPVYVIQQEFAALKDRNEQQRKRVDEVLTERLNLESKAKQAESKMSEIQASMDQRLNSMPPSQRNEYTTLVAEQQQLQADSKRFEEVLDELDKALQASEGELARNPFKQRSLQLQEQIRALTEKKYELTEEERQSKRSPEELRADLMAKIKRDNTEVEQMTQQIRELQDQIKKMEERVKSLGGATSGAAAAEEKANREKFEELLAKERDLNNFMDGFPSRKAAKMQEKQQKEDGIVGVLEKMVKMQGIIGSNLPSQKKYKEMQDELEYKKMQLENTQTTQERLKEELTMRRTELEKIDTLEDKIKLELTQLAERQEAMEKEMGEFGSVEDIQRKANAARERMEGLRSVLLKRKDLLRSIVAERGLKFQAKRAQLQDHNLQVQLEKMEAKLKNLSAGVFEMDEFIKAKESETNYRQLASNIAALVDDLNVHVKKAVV
Sequence of CrIFT81_(152-C)/74_(150-C)/27/25_(1-136) complex (Chlamydomonas reinhardtii) (A8HN58 whole entry, chain 3 of 4, further chain): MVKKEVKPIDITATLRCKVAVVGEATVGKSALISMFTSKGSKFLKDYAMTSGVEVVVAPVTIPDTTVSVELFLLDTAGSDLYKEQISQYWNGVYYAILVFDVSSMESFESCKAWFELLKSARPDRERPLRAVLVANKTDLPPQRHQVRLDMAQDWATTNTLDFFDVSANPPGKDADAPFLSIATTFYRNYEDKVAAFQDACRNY
Sequence of CrIFT81_(152-C)/74_(150-C)/27/25_(1-136) complex (Chlamydomonas reinhardtii) (B8LIX8 1-136, chain 4 of 4, further chain): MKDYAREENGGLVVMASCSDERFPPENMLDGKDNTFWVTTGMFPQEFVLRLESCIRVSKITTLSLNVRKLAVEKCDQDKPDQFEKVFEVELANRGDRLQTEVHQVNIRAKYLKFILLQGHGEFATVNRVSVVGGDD

For “Chlamydomonas reinhardtii RabL2, wild type (natural protein)”, in assay [1], the GTPase rate of RabL2 with IFT81 (460-533)/74 (460-532) against RabL2 alone is 5 fold. Regarding “Chlamydomonas reinhardtii CEP19 residues 1-208 (domain or fragment)”, the Kd amounted to 12.7 µM in assay [2] and 0.28 µM in assay [3].

As to “Chlamydomonas reinhardtii RabL2 Q83L (GTP-locked mutant) (natural protein)”, in assay [4], the Kd came out at 0.59 µM.
